Reference: patent US20150056134A1 (MABVAX THERAPEUTICS, published 2015)

Target: T1, Neutral Avidin (UniProt P02701 25-152)
T1 construct: Control coating without captured biotinylated sLe^a; also called NAV; Neutr-Avidin
Experiment: ELISA, hybridoma supernatant on NeutrAvidin-coated control wells without sLe^a

T1 sequence (P02701 25-152 limits assumed): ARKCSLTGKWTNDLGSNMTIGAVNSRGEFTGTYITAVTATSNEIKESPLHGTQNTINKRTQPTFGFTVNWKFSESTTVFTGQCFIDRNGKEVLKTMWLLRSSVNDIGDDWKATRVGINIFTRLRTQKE

Binder	OD (490 nm)
5B1 human anti-sLe^a monoclonal antibody (antibody, V domains shown, Human IgG1/lambda; The ADCC assay used recombinant r5B1 made in CHO cells from a full-length IgG1 vector; also called EF41-5B1; EF41-5B1(G)) VH: QVQLVESGGGSVQPGRSLRLSCEASGFTFEAYAMHWVRQPPGKGLEWVSSINWNSGRIAYADSVKGRFTISRDNARNSLYLQMNSLRLEDTAFYYCAKDIRRFSTGGAEFEYWGQGTLVTVSS VL: QSVLTQPPSASGTPGQRVTISCSGSSSNIGSNFVYWYQQLPGTAPKLLIYRNNQRPSGVPDRFSGSRSGTSASLAISGLRSEDEADYYCAAWDDSLGGHYVFGTGTKVTVL	0.05 OD (490 nm)
5H11 human anti-sLe^a monoclonal antibody (antibody, IgG1, V domains shown, Human IgG/lambda (IgG1), tested as hybridoma supernatant; also called EF41-5H11; EF41-5H11(G)) VH: QVQLLESGGGLVQPGRSLRLSCAASGFTFDEYAMHWVRQAPGKGLEWVSSVSWNSGSIGYADSVKGRFTISRDNAKNSLYLQMNSLRAEDTALYYCAKDIRTYSTGGAEFASWGQGTLVTASS VL: QSVLTQPPSASGTPGQRVTISCSGSSSNIGSNYVYWYQQVPGTAPKLLIYRNNQRPSGVPDRFSGSKSGTSASLAISGLRSEDEADYYCAAWDDSLSGHYVFGTGTKVTVL	0.05 OD (490 nm)

Now from value to binder:

OD (490 nm)	Binder
0.05 OD (490 nm)	9H3 human anti-sLe^a monoclonal antibody (antibody, IgG1, V domains shown, Human IgG/lambda (IgG1), tested as hybridoma supernatant; also called EF41-9H3; EF41-9H3 (G)) VH: EVQLLESGGGLVQPGRSLRLSCAASGFTFDDYVMHWVRQAPGKGLEWVSSISWNSGSIGYADSVKGRFIISRDNAKNSLYLQMNSLRAEDTALYYCAKDRRIRGDSGFEGDYWGQGTLVTVSS VL: not shown
0.05 OD (490 nm)	7E3 human anti-sLe^a monoclonal antibody (antibody, V domains shown, Human IgM/kappa, tested as hybridoma supernatant; also called EF41-7E3; EF41-7E3 (M)) VH: QVQLLESGGGVVQPGRSLRLSCAASGFTFSFYGMHWVRQAPGKGLEWVAAISYDGSNKYYADSVKGRFTISRDNSKNTLYLQMNSLRAEDTAVYYCAKRPNQFYCSDGRCYSIDYWGQGTLVTVSS VL: not shown
